These results are taken from US20040087497.

The target of one series is T1, Suc-βAla-Leu-Ala-Leu-Dox.
T1 chain: XLAX

A further series concerns the target T2, Suc-Leu-Ala-Gly-Dox.
T2 chain: XAX

B1: human CD10 (protein)
chain: GKSESQMDITDINTPKPKKKQRWTPLEISLSVLVLLLTIIAVTMIALYATYDDGICKSSDCIKSAARLIQNMDATTEPCTDFFKYACGGWLKRNVIPETSSRYGNFDILRDELEVVLKDVLQEPKTEDIVAVQKAKALYRSCINESAIDSRGGEPLLKLLPDIYGWPVATENWEQKYGASWTAEKAIAQLNSKYGKKVLINLFVGTDDKNSVNHVIHIDQPRLGLPSRDYYECTGIYKEACTAYVDFMISVARLIRQEERLPIDENQLALEMNKVMELEKEIANATAKPEDRNDPMLLYNKMTLAQIQNNFSLEINGKPFSWLNFTNEIMSTVNISITNEEDVVVYAPEYLTKLKPILTKYSARDLQNLMSWRFIMDLVSSLSRTYKESRNAFRKALYGTTSETATWRRCANYVNGNMENAVGRLYVEAAFAGESKHVVEDLIAQIREVFIQTLDDLTWMDAETKKRAEEKALAIKERIGYPDDIVSNDNKLNNEYLELNYKEDEYFENIIQNLKFSQSKQLKKLREKVDKDEWISGAAVVNAFYSSGRNQIVFPAGILQPPFFSAQQSNSLNYGGIGMVIGHEITHGFDDNGRNFNKDGDLVDWWTQQSASNFKEQSQCMVYQYGNFSWDLAGGQHLNGINTLGENIADNGGLGQAYRAYQNYIKKNGEEKLLPGLDLNHKQLFFLNFAQVWCGTYRPEYAVNSIKTDVHSPGNFRIIGTLQNSAEFSEAFHCRKNSYMNPEKKCRVW
In the series with Suc-βAla-Leu-Ala-Leu-Dox, B1 gave a Percent Conversion/Hour to Leu-Dox, CD10 transfected CHO Clone 8 (Percent Conversion/Hour) of 3 and a conversion rate to Leu-Dox, CD10 transfected CHO Clone 8 of 0.3 mM/h. Besides, in the series with Suc-Leu-Ala-Gly-Dox, the Percent Conversion/Hour to Gly-Dox, CD10 transfected CHO Clone 8 (Percent Conversion/Hour) stood at 0.61 and the conversion rate to Gly-Dox, CD10 transfected CHO Clone 8 was 0.06 mM/h.
